Among the data in article PMC10194977 are % of PERK activity (relative to control; ADP-Glo, SMAD3 substrate) with 0.87 μM calcineurin-B, 1 h, EC50 of activation of PERK kinase activity (ATP consumption, ADP-Glo luminescence; 87 nM PERK, 0.26 μM SMAD3 as substrate, 50 μM ATP; RT, 2 h; three-fold serial dilution of calcineurin-B) and relative PERK kinase activity (% of basal activity; ADP-Glo, SMAD3 substrate) with 0.87 μM calcineurin-B values, retold here.

Test [1] concerns the target Recombinant human PERK (EIF2AK3, active catalytic subunit of PERK protein) (human).
Test [2] shares this target. This is another data set of the same source.
For test [3] the target is unchanged. This is another data set of the same source.

Consider “full-length recombinant human calcineurin-B (from UniProt P63098 1-170) (natural protein)”, for which, in test [1], the % of PERK activity (relative to control; ADP-Glo, SMAD3 substrate) with 0.87 μM calcineurin-B, 1 h at 37 °C (no significant activation) is 99.5% and the % of PERK activity (relative to control; ADP-Glo, SMAD3 substrate) with 0.87 μM calcineurin-B, 1 h at RT came to 106%. The EC50 of activation of PERK kinase activity (ATP consumption, ADP-Glo luminescence; 87 nM PERK, 0.26 μM SMAD3 as substrate, 50 μM ATP; RT, 2 h; three-fold serial dilution of calcineurin-B) in test [2] was 2720 nM. The relative PERK kinase activity (% of basal activity; ADP-Glo, SMAD3 substrate) with 0.87 μM calcineurin-B at reaction times of 15, 30, 60 and 120 min, RT; highest value at 120 min in test [3] came out at 128%.
